Assay results: patent US20240199757A1

Biological target: T1, human NT5E expressed on MDA-MB-231 cells (human) (UniProt P21589)
T1 sequence (looked up): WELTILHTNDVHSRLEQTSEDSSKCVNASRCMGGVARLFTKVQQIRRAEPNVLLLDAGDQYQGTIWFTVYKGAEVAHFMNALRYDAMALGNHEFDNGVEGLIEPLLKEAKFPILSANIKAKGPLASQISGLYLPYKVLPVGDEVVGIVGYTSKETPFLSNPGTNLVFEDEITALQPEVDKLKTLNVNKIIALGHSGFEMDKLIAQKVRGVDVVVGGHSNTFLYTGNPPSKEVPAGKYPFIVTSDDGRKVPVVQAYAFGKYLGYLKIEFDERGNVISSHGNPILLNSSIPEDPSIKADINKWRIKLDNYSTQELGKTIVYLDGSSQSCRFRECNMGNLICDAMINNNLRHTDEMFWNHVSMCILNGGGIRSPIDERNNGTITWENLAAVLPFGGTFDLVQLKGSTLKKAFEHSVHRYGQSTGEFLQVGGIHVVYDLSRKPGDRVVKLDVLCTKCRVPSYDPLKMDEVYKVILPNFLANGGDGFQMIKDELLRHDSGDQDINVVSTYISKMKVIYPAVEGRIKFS
Assay: cell-based or functional assay

IC50 of NT5E activity on MDA-MB-231 cells, no ATP: 600 pM | IC50 of NT5E activity on MDA-MB-231 cells, with ATP: 1100 pM | maximal inhibition of NT5E on MDA-MB-231 cells: 70%
Substance: BMS986179 IgG (antibody)
